Data reported in patent publication US20260043816A1 (AC IMMUNE, published 2026).
Changes are numbered by the printed parent chain. Square brackets hold non-standard residues; d marks the D form. Ends that are not written are not given here. * marks the point of attachment. Biotin = O=C1N[C@H]2[C@H](CS[C@H]2CCCCC(=O)*)N1; pS = N[C@@H](COP(=O)(O)O)C(=O)O

Key:
Peptide 29 [1] = target: T1, Peptide 29 (human, phosphoserine at pS409 and pS410 (human TDP-43 numbering, in the SEQ ID NO: 9 part); Trioxatridecan-succinamic acid (Ttds) linker between SEQ ID NO: 7 and SEQ ID NO: 9); assay: pairing sandwich ELISA, antibody coated as capture, target titrated
T1 peptide: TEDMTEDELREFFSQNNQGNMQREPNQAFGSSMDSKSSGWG
Method: (§1) The capacity of antibodies to bind phospho TDP-43 and TDP-43 was determined using a sandwich enzyme-linked immunosorbent assay (ELISA), where each antibody was paired with a second TDP-43 antibody previously characterized for TDP-43 binding and performance in sandwich immunoassays, ACI-7071-809F12-Ab1-rec2 (as described in WO2020234473) or ACI-7069-636E5-Ab1 (as described in WO2020234473). ELISA plates (Nunc™ Edge™ 96-Well, Non-Treated, Flat-Bottom Microplate, ThermoFisher Scientific, Denmark) were coated with 5 μg/mL of anti-phospho TDP-43 or anti-TDP-43 antibodies in carbo/bicarbonate buffer, overnight at 4° C. Plates were then washed with 0.05% Tween-20/PBS and blocked with 1% bovine serum albumin (BSA) in 0.05% Tween-20/PBS for 1 hour at 37° C. The plates were then washed again as described above.
(§2) Serial-dilutions of target peptide or protein were then added to the plates. For assays with anti-phospho TDP-43 antibodies, one of four peptide conjugates (peptides 11, 23, 28, or 29) each composed of two TDP-43 sequences, one phosphorylated and one non-phosphorylated, conjugated together with a Trioxatridecan-succinamic acid linker (Ttds, binding regions and sequences shown in Table 4) were used. Peptides 11, 23, 28, and 29 were added in a 10-fold serial dilution starting at 0.5 μM. […] The plate was read at 450 nm using an ELISA plate reader (Tecan, Switzerland).

Peptide 29 [2] = target: T1, Peptide 29; assay: pairing sandwich ELISA, biotinylated antibody as detector, target titrated
Method: as §1, §2

Peptide 29 [3] = target: T1, Peptide 29; assay: SPR Biacore 8K, antibody captured, peptide analyte, single-cycle kinetics, 1:1 fit
Method: (§3) Each cycle started with the non-covalent capture of the antibody which were diluted in running buffer to a final concentration of 5 μg/mL and injected for 120 sec with a flow rate of 10 μL/min. Antibodies being measured were captured in channels […], leaving Fc 1 as a blank Fc. Capture levels were evaluated following a 120 sec stabilization period after each antibody injection. ACI-7071-809F12-Ab1-rec2 was used as control, binding to the non-phosphorylated sequences represented in peptides 28 and 29.
(§4) Injections of peptides 28 or 29 were performed using single-cycle kinetics with increasing concentrations ranging from 1.2 to 100 nM prepared as a 3-fold serial dilution. Injections were performed with contact times of 300 sec/injection at a flow rate of 30 μL/min. A dissociation phase of 900 sec followed the final injection. Sensor surface was regenerated by two injection of 10 mM Glycine-HCl pH 1.7 at a flow rate of 10 μL/min for 60 sec, followed by a stabilization period of 120 sec. Results obtained from single-cycle kinetics were double-referenced using the blank Fc 1 and buffer cycles and evaluated by Biacore 8K evaluation software (Cytiva). The following kinetic parameters were obtained using the 1:1 binding fit model with variable Reflective Index (RI): association rate constant (ka), dissociation rate constant (kd), affinity constant (KD) and saturation response (Rmax).

Peptide 29 [4] = target: T1, Peptide 29; assay: SPR Biacore 8K, antibody from purified hybridoma supernatant captured, peptide analyte, 1:1 fit
Method: as §3, §4

[5] = target: T2, recombinant full length TDP-43 (SEQ ID NO: 1, FL TDP-43) (human, UniProt Q13148 1-414); assay: pairing sandwich ELISA, antibody coated as capture, FL TDP-43 titrated
T2 construct: also called recombinant human soluble FL TDP-43; soluble human TDP-43
Method: as §1
Serial-dilutions of target peptide or protein were then added to the plates. For assays with anti-phospho TDP-43 antibodies, one of four peptide conjugates (peptides 11, 23, 28, or 29) each composed of two TDP-43 sequences, one phosphorylated and one non-phosphorylated, conjugated together with a Trioxatridecan-succinamic acid linker (Ttds, binding regions and sequences shown in Table 4) were used. Peptides 11, 23, 28, and 29 were added in a 10-fold serial dilution starting at 0.5 μM. For assays with TDP-43 antibodies only, recombinant full length TDP-43 (SEQ ID NO: 1, FL TDP-43) was diluted 3-fold from 21.9 pM. Plates were incubated for 1 hour at 37° C., and then washed. […] PEG-biotinylated phospho TDP-43 or TDP-43 antibodies were then respectively added to the wells and incubated for 1 hour at 37° C., after which the plates were washed. Horseradish peroxidase (HRP)-conjugated streptavidin (R&D Systems, Switzerland) was added at 1/200 dilution in 1% BSA and 0.05% Tween-20/PBS for 45 min at room temperature. […] The plate was read at 450 nm using an ELISA plate reader (Tecan, Switzerland).

[6] = target: T2, recombinant full length TDP-43 (SEQ ID …); assay: pairing sandwich ELISA, biotinylated antibody as detector, FL TDP-43 titrated
Method: as §1, §2

[7] = target: T3, biotinylated TDP-43 phospho peptide 370-384 (pS375 and pS379) (human); assay: capture ELISA, antibody on anti-mouse IgG, biotinylated peptide
T3 peptide: Biotin-GNNSY[pS]GSN[pS]GAAIG
Method: (§5) Briefly, for capture detection in ELISA, wells of 96-well plates were coated with 5 μg/mL goat anti-mouse IgG (Fc gamma fragment specific), in carbonate buffer, overnight at 4° C. Plates were then washed with 0.05% Tween-20/PBS and blocked with 1% bovine serum albumin (BSA) in 0.05% Tween-20/PBS for 1 hour at 37° C. Phospho TDP-43 antibodies were then added at 5 μg/mL and incubated for 2 hours at 37° C. after which the plates were washed as described above. Biotinylated peptides representing each of the phospho sites, or non-phosphorylated, were incubated at 0.5 mM in 0.1% BSA and PBS for 1 hour at 37° C. after which the plates were washed. A streptavidin-HRP-conjugate (R&D Systems, Minnesota, United States) was added at 1/200 dilution in 0.05% Tween-20/1% BSA in PBS for 45 minutes in the dark at ambient temperature. After the final wash, plates were incubated with TMB (Sigma-Aldrich, Switzerland), an HRP substrate solution, and read at 405 nm using an ELISA plate reader (Tecan, Switzerland).

[8] = target: T4, biotinylated TDP-43 phospho peptide 370-384 (pS375) (human); assay: as above
T4 peptide: Biotin-GNNSY[pS]GSNSGAAIG
Method: as §5

[9] = target: T5, biotinylated TDP-43 phospho peptide 370-384 (pS379) (human); assay: as above
T5 peptide: Biotin-GNNSYSGSN[pS]GAAIG
Method: as §5

[10] = target: T6, biotinylated TDP-43 phospho peptide 401-413 (pS409 and pS410) (human); assay: as above
T6 peptide: Biotin-FGSSMDSK[pS][pS]GWG
Method: as §5

[11] = target: T7, biotinylated TDP-43 phospho peptide 401-413 (pS409) (human); assay: as above
T7 peptide: Biotin-FGSSMDSK[pS]SGWG
Method: as §5

[12] = target: T8, biotinylated TDP-43 phospho peptide 401-413 (pS410) (human); assay: as above
T8 peptide: Biotin-FGSSMDSKS[pS]GWG
Method: as §5

[13] = target: T9, biotinylated non-phosphorylated TDP-43 peptide 366-414 (human, biotin on the N-terminus); assay: as above
T9 peptide: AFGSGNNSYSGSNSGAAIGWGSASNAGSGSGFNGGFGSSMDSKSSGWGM
Method: as §5

B1: ACI-8072-946.8H6-Ab1 (antibody, V domains shown)
VH: EEHLVESGGGLVKPGGSLKLSCAASGFTFSDYGMQWVRQAPEKGLEWVAYISSGSSTIYYEDTVKGRFTISRDNAKNTLFLQMTSLRSEDTAMYYCVRPYDNYGQGTLVTVSA
VL: DVLMTQTPLSLPVSLGDQASISCRSSQSIVHSNGNTYLEWYLQKPGQSPKLLIYKVSNRFSGVPDRFSGSGSGTDFTLKISRVEAEDVGVYYCFQGSHVPRTFGGGTKLEIK
notes: also called 946.8H6D10; pS409/pS410 TDP-43 antibody
- EC50 (Peptide 29 [1]): 0.111 nM
- EC50 (Peptide 29 [2]): 1.12 nM
- Kd (Peptide 29 [3]): 3.28 nM
- koff (Peptide 29 [3]): 0.00469 s⁻¹
- kon (Peptide 29 [3]): 1.43e+06 M⁻¹ s⁻¹

B2: ACI-8072-946.4G5-Ab1 (antibody, V domains shown)
VH: B1 VH with E2V, H3Q, Q35H, E61A, I70M, V97S, D101G
VL: B1 VL with V88L
notes: also called 946.4G5F1; pS409/pS410 TDP-43 antibody
- EC50 (Peptide 29 [1]): 0.196 nM
- EC50 (Peptide 29 [2]): 1.96 nM
- Kd (Peptide 29 [3]): 1.68 nM
- koff (Peptide 29 [3]): 0.000817 s⁻¹
- kon (Peptide 29 [3]): 487000 M⁻¹ s⁻¹

B3: ACI-8072-946.9D6-Ab1 (antibody, V domains shown)
VH: B1 VH
VL: DIVLTQSPASLAVSLGQRATISCRASKSVSTSGYSYMHWYQQKPGQPPKLLIYLASNLESGVPARFSGSGSGTDFTLNIHPVEEEDAATYYCQHSRELPWTFGGGTKLEIK
notes: Data marked * were generated with hybridoma / purified hybridoma supernatant; also called 946.9D6F3
- Kd (Peptide 29 [4]): 2.29 nM
- koff (Peptide 29 [4]): 0.000707 s⁻¹
- kon (Peptide 29 [4]): 309000 M⁻¹ s⁻¹

B4: ACI-7069-636E5-Ab1 (as described in WO2020234473) (antibody, V domains shown)
VH: EVHLVESGGDLVMPGGSLKLSCAASGFTFSNYGMSWVRQTPDKRLEWVATISSGGKYINYLDSLKGRFTISRDNAKNTLYLQMSSLKSEDTAMYYCAKDYGSGWAWFAYWGQGTLVTVSA
VL: QLVLTQSSSASFSLGASAKLTCTLSSQHSTYTIEWYQQQPLKPPKYVMELKKDGSHSTGDGIPDRFSGSSSGADRYLSISNIQPEDEAIYICGVGDTIKEQFVYVFGGGTKVTVL
notes: also called 636E5B8
- EC50 [5]: 1.16 nM
- EC50 [6]: 0.07 nM

B5: ACI-8071-943.12A8-Ab1 (antibody, V domains shown)
VH: EVQLVESGGGLVHPKGSLQLSCAASGFTFNTYTMHWVRQAPGKGLEWVARIRSKRSNYATYYADSVKDRFTISRDDSQSMLYLQMNNLKTEDTAIYYCVRGTGSYWGQGTSVTVSS
VL: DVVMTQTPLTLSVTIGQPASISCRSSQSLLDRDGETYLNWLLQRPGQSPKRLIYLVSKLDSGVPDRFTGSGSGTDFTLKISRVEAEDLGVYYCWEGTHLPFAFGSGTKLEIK
notes: also called 943.12A8B4; pS403/pS404 TDP-43 antibody
- binding result [7]: no binding (tested: peptide at 0.5 mM)
- binding result [8]: no binding (tested: peptide at 0.5 mM)
- binding result [9]: no binding (tested: peptide at 0.5 mM)
- binding result [10]: no binding (tested: peptide at 0.5 mM)
- binding result [11]: no binding (tested: peptide at 0.5 mM)
- binding result [12]: no binding (tested: peptide at 0.5 mM)
- binding result [13]: no binding (tested: peptide at 0.5 mM)

B6: ACI-8071-943.7H9-Ab1 (antibody, V domains shown)
VH: EIQLQQSGTVMARPGASVKMSCKTSGYIFTNYWMHWVKQRPGQGLDWIGTIYPGNSDTDYNQNFKGKAKLTAVTSASTAYMELSSLTNEDSAVYFCIRGGWGGFPYWGQGTLVTVSA
VL: DVVMTQIPLSLPVSLGDQASISCRSSQRLVHSNGNTYLHWYLQKPGQSPKFLIHKVSNRFSGVPDRFSGSGSGTDFTLKIRRVEAEDLGVYFCCQSTHVPYTFGGGTKLEIK
notes: also called 943.7H9H8; pS403/pS404 TDP-43 antibody
- binding result [7]: no binding (tested: peptide at 0.5 mM)
- binding result [8]: no binding (tested: peptide at 0.5 mM)
- binding result [9]: no binding (tested: peptide at 0.5 mM)
- binding result [13]: no binding (tested: peptide at 0.5 mM)

B7: ACI-8071-943.7D3-Ab1 (antibody, V domains shown)
VH: QVQLQQPGTELVKPGASVKLSCKASGYTFTRYWMHWMKQRPGQGLEWIGNINPSDGGTNYNEKFKNKASLTVDKSSSTAYMQLSRLTSEDSAVYYCARRGSGYWGQGTTLTVSS
VL: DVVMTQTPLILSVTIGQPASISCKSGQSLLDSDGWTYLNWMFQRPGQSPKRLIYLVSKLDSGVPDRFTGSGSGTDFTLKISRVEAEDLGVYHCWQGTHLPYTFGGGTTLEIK
notes: also called 943.7D3E2; pS403/pS404 TDP-43 antibody
- binding result [7]: no binding (tested: peptide at 0.5 mM)
- binding result [8]: no binding (tested: peptide at 0.5 mM)
- binding result [9]: no binding (tested: peptide at 0.5 mM)
- binding result [13]: no binding (tested: peptide at 0.5 mM)

B8: ACI-8071-943.2E6-Ab1 (antibody, V domains shown)
VH: B7 VH with R31S, M37V, S54I, D55N, G56S, G57D, N66T, S69T, R85S
VL: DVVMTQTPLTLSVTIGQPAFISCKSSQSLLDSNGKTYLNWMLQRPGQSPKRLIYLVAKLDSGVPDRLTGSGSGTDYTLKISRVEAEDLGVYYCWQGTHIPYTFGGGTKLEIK
notes: also called 943.2E6E10; pS403/pS404 TDP-43 antibody
- binding result [7]: no binding (tested: peptide at 0.5 mM)
- binding result [8]: no binding (tested: peptide at 0.5 mM)
- binding result [9]: no binding (tested: peptide at 0.5 mM)
- binding result [10]: no binding (tested: peptide at 0.5 mM)
- binding result [11]: no binding (tested: peptide at 0.5 mM)
- binding result [12]: no binding (tested: peptide at 0.5 mM)
- binding result [13]: no binding (tested: peptide at 0.5 mM)
